The substances below were run against GST-tagged MERS-CoV papain-like protease (PLpro) (MERS-CoV) (UniProt K9N7C7) (assay: BLI).

Row | Substance | Kd
1 | ubiquitin variant A46F-K48E (UbV2) (from UniProt P0CG48 1-76) (designed binder) | 0.22 µM
2 | ubiquitin variant A46F-K48E-G75R (from UniProt P0CG48 1-76) (designed binder) | 11.4 µM
3 | ubiquitin variant A46F-K48E-E64Y (UbV3) (from UniProt P0CG48 1-76) (designed binder) | 0.00277 µM
4 | ubiquitin variant A46F-K48E-E64Y-R74N-G75S (UbV5) (from UniProt P0CG48 1-76) (designed binder) | 0.00148 µM

— publication PMC10274944
